Source: US9371393B2, “Class I anti-CEA antibodies and uses thereof” (Immunomedics, Inc., priority 2009, dated 2016)
[ ]: non-standard residue; d: D form. The star is where a group is joined. HSG = histaminyl-succinyl-glycine, O=C(CCC(=O)NCC(=O)*)NCCc1c[nH]cn1; DTPA = O=C(O)CN(CCN(CC(=O)O)CC(=O)O)CCN(CC(=O)O)CC(=O)*

Assays:
[1] = Stability of 18F-labeled IMP 272 in PBS; assay type: physicochemical; details: room temperature, 150 μL PBS, ~1 hr
Description: F-18 Labeling of IMP 272—A 3 μL aliquot of the aluminum stock solution was placed in a REACTI-VIAL™ and mixed with 50 μL ^18F (as received) and 3 μL of the IMP 272 solution. The solution was heated in a heating block at 110° C. for 15 min and analyzed by reverse phase HPLC. […] An additional 10 μL of the IMP 272 solution was added to the reaction and it was heated again and analyzed by reverse phase HPLC (not shown). […] The remainder of the peptide solution was incubated at room temperature with 150 μL PBS for ˜1 hr and then examined by reverse phase HPLC.

[2] = Stability of purified 18F-labeled IMP 272 in water; assay type: physicochemical; details: 25° C., 40 min
Description: The labeled peptide was purified by applying the labeled peptide solution onto a 1 cc (30 mg) WATERS® HLB column (Part #186001879) and washing with 300 μL water to remove unbound F-18. The peptide was eluted by washing the column with 2×100 μL 1:1 EtOH/H2O. The purified peptide was incubated in water at 25° C. and analyzed by reverse phase HPLC (not shown). […] After 40 min incubation in water about 17% of the ^18F was released from the peptide, while 83% was retained (not shown).

hMN-14×734 = assay: Antibody binding of 18F-labeled IMP 272 by size exclusion HPLC, hMN-14×734
Description: (§1) The peptide (16 μL 2 mM IMP 272, 48 μg) was labeled with ^18F and analyzed for antibody binding by size exclusion HPLC.

hMN-14×679 = assay: Antibody binding of 18F-labeled IMP 272 by size exclusion HPLC, hMN-14×679
Description: as §1

RIIα dimers (DDD) = RIIα dimers (DDD) (Homo sapiens, UniProt P13861); details: Alto et al. 2003; read-out: affinity / binding constant for RIIα dimers (DDD); cited from earlier work
RIIα dimers (DDD), sequence (P13861 whole entry): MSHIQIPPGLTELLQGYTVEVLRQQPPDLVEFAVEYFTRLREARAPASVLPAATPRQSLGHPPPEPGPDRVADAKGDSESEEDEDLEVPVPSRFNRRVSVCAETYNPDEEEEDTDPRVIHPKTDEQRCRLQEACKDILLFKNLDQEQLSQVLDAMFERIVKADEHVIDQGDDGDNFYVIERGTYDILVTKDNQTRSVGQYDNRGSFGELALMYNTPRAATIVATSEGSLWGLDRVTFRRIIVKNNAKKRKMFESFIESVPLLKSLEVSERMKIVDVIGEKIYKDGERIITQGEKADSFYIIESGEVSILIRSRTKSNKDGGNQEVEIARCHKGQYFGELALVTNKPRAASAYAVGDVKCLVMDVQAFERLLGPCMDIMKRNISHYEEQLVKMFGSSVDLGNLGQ

tumor cell invasion = assay: Collagen-based invasion assay, cell line panel; design: species or system human
Description: Collagen-based invasion assay—The assay was done using CHEMICON® Kit (#ECM551, MILLIPORE®, Billerica, Mass.). Tumor cells at 80% confluence and were serum-starved for 18 to 24 hours before the assay was used. Cells were harvested with 5 mol of 2 mmol/L EDTA/PBS per 100-mm dish and incubated at 37° C. for 5 to 15 minutes. Cells were collected into 10 to 20 mol of quenching medium (serum-free DMEM containing 5% BSA) to inactivate trypsin/EDTA from the harvesting buffer. Cells were pelleted, resuspended in quenching medium (1×10^6 cells/mol), and appropriate antibody Fabs were added to individual cell aliquots. Cell invasion potential was determined as follows. Baseline invasion and invasion in the presence of a chemoattractant (10% FBS) were measured after a 72-hour incubation period at 37° C. in a 5% CO2 incubator. The bottom side of the collagen-coated polycarbonate membrane insert of the invasion chamber was placed in 400 μL of cell stain for 20 minutes at room temperature and washed. The dye was extracted and transferred into a 96-well microtiter plate for colorimetric measurements (A560 nm).

[3] = tested on: GW-39 human colonic carcinoma; assay: GW-39 intrapulmonary micrometastasis model (GW-39iv), survival; assay type: in vivo, nude mice; details: cells pretreated with Fab′ 10 μg/mol, 100 μg i.v. 1 day after implantation; untreated 42 days
Description: FIG. 7 illustrates an exemplary in vivo micrometastasis study. Top, immunohistochemistry of GW-39 tumor sections stained with a nonspecific antibody (left), MN-14 anti-CEACAM5 (middle), and MN-15 anti-CEACAM6 (right) and photographed at 100×. Bottom, survival of nude mice implanted with 30 μL of a 10% suspension of GW-39 human colonic cancer cells. Mice were implanted with cells that were […] for 30 minutes with MN-3-, MN-15-, or hMN-14-Fab′ (10 μg/mol). Mice also received a single 100 μg dose of the same Fab′ 1 day after cell implantation.
In vivo therapy studies—Female athymic nude mice (6 to 8 weeks old) were purchased from TACONIC® (Germantown, N.Y.). Therapy studies were done using our CEACAM5+/CEACAM6+GW-39 intrapulmonary micrometastasis model, GW-39iv (Sharkey et al., J Natl Cancer Inst 1991, 83:627-32; Blumenthal et al., Cancer Res 1992, 52:6036-44). The GW-39 human colonic carcinoma has been maintained as a serially transplanted signet-ring cell cancer line since 1966 (Goldenberg et al., Transplantation 1966, 4:760-4). […] Body weight was monitored weekly and animal survival recorded. Results were analyzed by the Kaplan-Meier estimated survival curves, and significance was determined with the log-rank comparison of survival curves. Median survival time for each treatment group also was determined. […]

DTPA-Gln-Ala-Lys(HSG)-D-Tyr-Lys(HSG)-NH2 ({DTPA}-QAK(HSG)[dY]K(HSG)-NH2; SMILES C[C@H](NC(=O)[C@H](CCC(N)=O)NC(=O)CN(CCN(CCN(CC(=O)O)CC(=O)O)CC(=O)O)CC(=O)O)C(=O)N[C@@H](CCCCNC(=O)CNC(=O)CCC(=O)NCCc1c[nH]cn1)C(=O)N[C@H](Cc1ccc(O)cc1)C(=O)N[C@@H](CCCCNC(=O)CNC(=O)CCC(=O)NCCc1c[nH]cn1)C(N)=O) [^18F-labeled IMP 272]
^18F still attached to the peptide [1]: 42% | ^18F unbound [1]: 58% | ^18F released from the peptide [2]: about 17% | ^18F retained [2]: 83% | binding to irrelevant bispecific antibody hMN-14×734 (hMN-14×734): did not bind | binding to hMN-14×679 (hMN-14×679): bound

QIEYLAKQIVDNAIQQA [AKAP-IS]
Kd (RIIα dimers (DDD)): 0.4 nM

B1: hMN-14 Fab′: Fab′ of MN-14 in its humanized form, hMN-14 or labetuzumab (antibody, chains of the INN, looked up, V domains shown)
VH: EVQLVESGGGVVQPGRSLRLSCSASGFDFTTYWMSWVRQAPGKGLEWIGEIHPDSSTINYAPSLKDRFTISRDNAKNTLFLQMDSLRPEDTGVYFCASLYFGFPWFAYWGQGTPVTVSS
VL: DIQLTQSPSSLSASVGDRVTITCKASQDVGTSVAWYQQKPGKAPKLLIYWTSTRHTGVPSRFSGSGSGTDFTFTISSLQPEDIATYYCQQYSLYRSFGQGTKVEIK
modifications: Fab′
notes: Fab′ of MN-14 in its humanized form, hMN-14 or labetuzumab
effect on tumor cell invasion (tumor cell invasion): had no effect on tumor cell invasion in most cell lines | median survival time [3]: 49 days
